Results reported in patent US9228015B2, “Nogo receptor antagonists and methods of increasing neurite outgrowth” (Biogen Idec MA Inc., priority 2006, dated 2016).

B1: sNogoR310: soluble Nogo receptor-1 polypeptide, residues 26-310 of SEQ ID NOs: 7 and 9 or 27-310 of SEQ ID NO: 9; mouse form in transgenic mice (protein, listed as Homo sapiens)
chain: PCPGACVCYNEPKVTTSCPQQGLQAVPVGIPAASQRIFLHGNRISHVPAASFRACRNLTILWLHSNVLARIDAAAFTGLALLEQLDLSDNAQLRSVDPATFHGLGRLHTLHLDRCGLQELGPGLFRGLAALQYLYLQDNALQALPDDTFRDLGNLTHLFLHGNRISSVPERAFRGLHSLDRLLLHQNRVAHVHPHAFRDLGRLMTLYLFANNLSALPTEALAPLRALQYLRLNDNPWVCDCRARPLWAWLQKFRGSSSEVPCSLPQRLAGRDLKRLAANDLQGCA
B2: sNogoR344-Fc: fusion protein of residues 26-344 of rat Nogo receptor-1 and hinge and Fc region of rat IgG1 (protein)
chain: PCPGACVCYNEPKVTTSRPQQGLQAVPAGIPASSQRIFLHGNRISYVPAASFQSCRNLTILWLHSNALAGIDAAAFTGLTLLEQLDLSDNAQLRVVDPTTFRGLGHLHTLHLDRCGLQELGPGLFRGLAALQYLYLQDNNLQALPDNTFRDLGNLTHLFLHGNRIPSVPEHAFRGLHSLDRLLLHQNHVARVHPHAFRDLGRLMTLYLFANNLSMLPAEVLVPLRSLQYLRLNDNPWVCDCRARPLWAWLQKFRGSSSGVPSNLPQRLAGRDLKRLATSDLEGCAVASGPFRPFQTNQLTDEELLGLPKCCQPDAADKA
modifications: left off: a dimerising Fc or GST
notes: fusion protein of residues 26-344 of rat Nogo receptor-1 and hinge and Fc region of rat IgG1

Experiments:
[1] = test system: mice with dorsal over-hemisection injury; assay: gfap::sNogoR310 transgenic mice, dorsal over-hemisection: axon tracing and serotonin fiber analysis; format: in vivo, mouse
Description: We cloned the mouse sNogoR310 cDNA (corresponding to amino acids 1-310 of the Nogo receptor-1) into the Nod site of the C-3123 vector. In this vector, sNogoR310 expression is under the control of the glial fibrillary acidic protein (gfap) gene regulatory elements, which allow high level expression with enhanced secretion from reactive astrocytes at site of injury. We digested the resulting vector sequentially with AatII and SfiI and isolated the gfap::sNogoR310 construct on a 3.4 kb fragment. We microinjected this fragment into embryos to generate transgenic mice. We verified by PCR that the transgene had integrated and identified five founder lines. We crossed heterozygous males of the two founder lines with the highest expression levels to female C57BL/6J mice. We confirmed that the GFAP-positive cells express and secrete sNogoR310 in heterozygous transgenic mice by Western blot analysis using antibody raised against Nogo receptor-1.
We deeply anesthetized adult female heterozygous transgenic or littermate WT mice (10-16 weeks of age) and performed a complete laminectomy, fully exposing the dorsal part of spinal cord at T6 and T7 levels. We performed a dorsal over-hemisection at T6 with a 30-gauge needle and a pair of microscissors to completely sever the dorsal and dorsolateral corticospinal tracts (CSTs). We passed a marked needle across the dorsal part of the spinal cord several times to assure that the lesion was at a depth of 1.0 mm. We sutured the muscle layers over the laminectomies and closed the skin on the back with surgical staples. To trace the corticospinal tracts, we made a burr hole overlying cerebral cortex on the right side into the skull 14 days after spinal cord injury. We applied the tracer BDA (MW 10,000, 10% in PBS) (Molecular Probes, Eugene, Oreg.) to 4 injection sites at a depth of 0.7 mm from the cortical surface, Four weeks after injury, the mice were perfused transcardially with PBS, followed by 4% paraformaldehyde.
We investigated the integrity of descending corticospinal tracts (CST) by injecting anterograde tracer biotin dextran amine (BDA) into the right motor cortex as described in Li and Strittmatter, J. Neurosci. 23:4219-27 (2003). In littermate WT mice, the prominent dorsal CST (dCST) is tightly bundled rostral to the lesion, and a few dorsolateral CST fibers are visible ipsilaterally. A small number of BDA-labeled short collateral sprouts project into gray matter, particularly in the ventral cord, but the sprouting is largely confined to the side of the cord contralateral to the tracer injection. However, the sections rostral to dorsal hemisection from injured sNogoR310 transgenic mice indicate a quite different BDA labeling pattern. A high density of BDA-labeled CST fibers are observed outside of prominent dCST in all the transgenic mice from line Tg08 or line Tg01. Ectopic fibers extend throughout the gray matter area, and some fibers reach into lateral and dorsolateral white matter. Several fibers (4-12 sprouts per transverse section) are seen on the opposite side of the spinal cord (ipsilateral to the tracer injection site). Micro densitometric measurement of the collateral sprouts indicates approximately a tenfold increase in sprouting density in sNogoR310 transgenic mice. […]

[2] = test system: mice with dorsal over-hemisection injury; assay: gfap::sNogoR310 transgenic mice, dorsal over-hemisection: behavioral tests; format: in vivo, mouse
Description: The Basso-Beattie-Bresnahan (BBB) locomotor rating scale (Basso et al., Neurotrauma 13:343-359 (1996)), the inclined plane test and the inclined grid walking test (Li and Strittmatter, J Neurosci. 23:4219-27 (2003)) were monitored in rats and mice after injury. For the inclined plane test, we measured the maximal angle to which a 50 cm×60 cm board could be angled for 5 sec without the mouse sliding off. For inclined grid walking, the mice were trained to climb a wire grid (35 cm long with 2.54 cm squares) at a slope of 45 degrees. The number of instances in which the hindpaw dropped below the grid plane was scored for each excursion from bottom to top. For the rat behavioral testing, BBB locomotor scale, grid walking and footprint analysis were performed. For grid walking, the rats were trained to walk on a wire grid (70 cm long with 2.54 an squares), and the number of instances in which the hindpaw dropped below the grid plane was counted. For footprint analysis, the walking patterns of rat hindpaws were recorded with ink during a continuous locomotion across a 90 cm runway, and stride length on each side and stride width were calculated (Metz et al., Brain Res. 883:165-177 (2000)). All of these behavioral tests were performed by at least two individuals. Throughout the surgery, behavioral testing and histologic analysis, researchers were blind to the identity of the compound in the minipump.
We deeply anesthetized adult female heterozygous transgenic or littermate WT mice (10-16 weeks of age) and performed a complete laminectomy, fully exposing the dorsal part of spinal cord at T6 and T7 levels. We performed a dorsal over-hemisection at T6 with a 30-gauge needle and a pair of microscissors to completely sever the dorsal and dorsolateral corticospinal tracts (CSTs). We passed a marked needle across the dorsal part of the spinal cord several times to assure that the lesion was at a depth of 1.0 mm. We sutured the muscle layers over the laminectomies and closed the skin on the back with surgical staples. […]

[3] = test system: NogoA, NogoB, NogoC, MAG and OM-gp binding to Nogo receptor-1; assay: Soluble Nogo receptors block ligand binding to Nogo receptor-1
[4] = test system: DRG neurons, myelin-mediated inhibition of neurite outgrowth; assay: Neurite outgrowth assay, P3-4 rat DRG neurons, myelin mixed with test protein (Example 10); format: cell-based; details: mixed with CNS myelin, FIGS. 9-11
Description: Lab-Tek® culture slides (4 wells) were coated with 0.1 mg/ml poly-D-lysine (Sigma®). CNS myelin alone or mixed with sNogoR310, sNogoR310-Fc fusion protein, mAb 5B10 or control PBS were separately spotted as 3 μl drops. Fluorescent microspheres (Polysciences) were added to the myelin/PBS to allow later identification of the drops (Grandpre et al., Nature 403:439-444 (2000)). Lab-Tek® slides were then rinsed and coated with 10 μg/ml laminin (Gibco™).
Dorsal root ganglions (DRG's) from P3-4 Sprague Dawley rat pups were dissociated with 1 mg/ml collagenase type 1 (Worthington), triturated with fire-polished Pasteur pipettes pre-plated to enrich in neuronal cells and finally plated at 23,000 cells/well on the pre-coated Labtek culture slides. The culture medium was F12 containing 5% heat inactivated donor horse serum, 5% heat inactivated fetal bovine serum and 50 ng/ml mNGF and incubated at 37° C. and 5% CO2 for 6 hours.
Slides were fixed for 20 minutes with 4% paraformaldehyde containing 20% sucrose and stained for the neuronal marker anti beta-III-tubulin (Covance TUJ1) diluted 1:500. As secondary antibody anti-mouse Alexa Fluor® 594 (Molecular Probes) was diluted 1:300 and slides were coverslipped with Gel/Mount™ (Biømeda™). 5× digital images were acquired with OpenLab™ software and analyzed by using the MetaMorph® software for quantification of neurite outgrowth.

chick neurons = assay: Neurite outgrowth assay using chick neurons; format: cell-based
[5] = test system: Neuroscreen cells (sub-clone of PC12 cells); assay: Neuro-protection assay, differentiated Neuroscreen cells with or without laminin; format: cell-based; details: same concentrations, absence of laminin
Description: In some experiments, a sub-clone of PC12 cells (Neuroscreen™) was used (Cellomics®). The Neuroscreen™ cells were pre-differentiated for 7 days with 200 ng/ml NGF, detached and replated on 96-well plates pre-coated with poly-D-lysine. In some wells 5 μg/ml laminin was added for 2-3 hours and rinsed before the cells were plated. After 2 days incubation the plates were fixed with 4% paraformaldehyde, stained with rabbit anti-Beta-III-tubulin antibody diluted 1:500 (Covance®) and Hoechst (nuclear stain). The ArrayScan® II was used to quantify neurite outgrowth as in the DRG cells.
(§1) sNogoR344-Fc or rat IgG were added in solution to P6-7 DRG neurons and to differentiated Neuroscreen™ cells at the time of plating.

P6 DRG neurons = assay: Neuro-protection assay, P6-7 rat DRG neurons with or without laminin; format: cell-based
Description: We also tested the neuro-protective effect of soluble Nogo receptors by performing experiments with cells grown in the presence and absence of laminin. Neuronal cell growth in media without laminin is poor and models neuronal stress conditions.
DRG's were dissected from post-natal day 6-7 rat pups (P6-7), dissociated into single cells and plated on 96-well plates pre-coated with poly-D-lysine as described above. In some wells 2 μg/ml laminin was added for 2-3 hours and rinsed before the cells were plated. After an 18-20 h incubation the plates were fixed with 4% para-formaldehyde, stained with rabbit anti-Beta-III-tubulin antibody diluted 1:500 (Covance®) and anti-HuC/D diluted 1:100 (Molecular Probes), and fluorescent secondary antibodies (Molecular Probes) were added at 1:200 dilution. The ArrayScan® II (Cellomics®) was used to capture 5× digital images and to quantify neurite outgrowth as average neurite outgrowth/neuron per well, by using the Neurite outgrowth application. Nine 5× images from 3 wells/condition were analyzed.
as §1

Row | block of binding of NogoA, NogoB, NogoC, MAG and OM-gp to Nogo receptor-1 [3] | Molecule | BDA-labeled regenerating fibers coursing in the rostral-caudal axis ([1]; any level 1-4 mm caudal to the lesion, each transgenic mouse) | fibers on the opposite side of the spinal cord (ipsilateral to the tracer injection site) ([1]; rostral to dorsal hemisection, transgenic mice) | CST sprouting ([1]; secreted from astrocytes in transgenic mice) | total length of serotonin fibers in the ventral horn of caudal spinal cord ([1]; transgenic vs WT group) | increase in collateral sprouting density (micro densitometric measurement) ([1]; transgenic vs WT mice) | sustainable angle on inclined plane ([2]; days 7-28 after injury vs control) | BBB scores ([2]; lines Tg08 and Tg01 vs control, 7-28 days) | inclined grid climbing errors ([2]; post-injury, FIG. 13D) | protection of DRG neurons from myelin-mediated inhibition of neurite outgrowth [4] | protection in similar assay using chick neurons (chick neurons) | neuro-protective effect [5] | neuro-protective effect (P6 DRG neurons; 1 μM and 10 μM, absence of laminin) | quantification of neurite outgrowth (P6 DRG neurons; absence of laminin) | effect on DRG neurons growing on a laminin substrate (P6 DRG neurons; same concentrations, laminin substrate)
1 | block | B1 | 5-15 | 4-12 sprouts per transverse section | induces CST sprouting | much greater number | tenfold | significantly greater | significantly higher | progressive improvement | protected | protective | – | – | – | –
2 | – | B2 | – | – | – | – | – | – | – | – | – | – | seen | observed | dose-dependent increase | did not produce any unusual effect
